This is an account of results in patent publication US20210155689A1 (SHANGHAI PHARMAEXPLORER, published 2021).

In assay [1] the target is T1, human LAG-3 on cells (HEK293-hLAG-3 stable cell line) (human, UniProt P18627 23-525).
T1 sequence: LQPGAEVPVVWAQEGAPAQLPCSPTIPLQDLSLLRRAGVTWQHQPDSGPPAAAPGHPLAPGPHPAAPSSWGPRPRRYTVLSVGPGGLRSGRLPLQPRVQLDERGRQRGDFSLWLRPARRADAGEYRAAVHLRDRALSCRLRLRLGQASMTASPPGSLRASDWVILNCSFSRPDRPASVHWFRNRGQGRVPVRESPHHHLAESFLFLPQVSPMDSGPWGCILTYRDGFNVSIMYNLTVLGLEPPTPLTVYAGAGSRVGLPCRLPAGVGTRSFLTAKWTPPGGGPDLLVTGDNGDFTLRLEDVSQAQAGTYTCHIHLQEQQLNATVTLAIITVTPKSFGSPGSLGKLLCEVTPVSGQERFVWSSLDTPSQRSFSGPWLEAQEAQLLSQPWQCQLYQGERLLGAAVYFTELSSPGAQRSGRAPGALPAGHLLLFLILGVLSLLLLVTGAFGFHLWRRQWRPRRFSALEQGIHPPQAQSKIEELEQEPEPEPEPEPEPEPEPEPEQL
The assay is described as follows: FACS, HEK293-hLAG-3, antibody 0.000 nM. The source says:
The pIRES plasmid with the monkey-derived full-length gene was transfected into the HEK293 cell line to construct a HEK293 stable cell line containing monkey LAG-3 (herein referred to as HEK293-cLAG-3 stable cell line). The HEK293-hLAG-3 stable cell line and HEK293-cLAG-3 stable cell line were expanded in a T-75 cell culture flask to a 90% confluence. The medium was aspirated, and the cells were washed with HBSS (Hanks' Balanced Salt Solution) 1-2 times, then treated with a enzyme-free cell dissociation fluid (Versene solution: Life technology) and the cells were collected. The cells were washed with HBSS buffer for 1-2 times. After counted, the cells were diluted with HBSS to 1-2×10⁶ cells per ml, added with 1% goat serum blocking solution, incubated on ice for 20-30 minutes, and then washed with HBSS for 2 times by centrifugation. The collected cells were suspended in the FACS buffer (HBSS+1% BSA) to 2×10⁶ cells/ml, added as 100 microliters per well to a 96-well FACS reaction plate, added with 100 microliters per well of the antibody sample to be tested, incubated on ice for 1-2 hours. The plate was washed twice with the FACS buffer by centrifugation, added with 100 microliters of fluorescent (Alexa 488)-labeled secondary antibodies per well, and incubated on ice for 0.5-1.0 hours. The plate was washed 2-3 times with FACS buffer by centrifugation, added with 100 μl fixative solution (4% Paraformaldehyde) per well to suspend the cells. 5-10 minutes later, it was washed 1-2 times with FACS buffer by centrifugation. The cells were suspended with 100 microliters of FACS buffer, FACS (FACSCalibur, BD) was used for detection and the results were analyzed.

The target in assay [2] is T2, LAG-3-hFc protein (human LAG-3 extracellular region with hFc tag) (human, UniProt P18627 23-450).
T2 construct: also called hLAG-3-hFc; LAG-3 protein; not shown: human IgG Fc fragment (hFc) of the pCpC vector
T2 sequence: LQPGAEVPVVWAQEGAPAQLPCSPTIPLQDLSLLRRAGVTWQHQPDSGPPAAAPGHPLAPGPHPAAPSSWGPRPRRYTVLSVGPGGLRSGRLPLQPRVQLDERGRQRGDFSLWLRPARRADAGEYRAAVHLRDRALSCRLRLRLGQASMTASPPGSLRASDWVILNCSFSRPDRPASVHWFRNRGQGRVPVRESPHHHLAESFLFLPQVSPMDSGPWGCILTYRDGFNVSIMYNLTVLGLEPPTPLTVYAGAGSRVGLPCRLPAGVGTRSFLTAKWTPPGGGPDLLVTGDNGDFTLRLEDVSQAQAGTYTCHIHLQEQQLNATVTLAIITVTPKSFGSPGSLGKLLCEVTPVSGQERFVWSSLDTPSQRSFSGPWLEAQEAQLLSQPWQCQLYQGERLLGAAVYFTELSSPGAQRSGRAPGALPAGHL
Kind of assay: FACS, inhibition of LAG-3-hFc binding to MHC II on Raji cells, antibody 66.667 nM. The method, then: The FACS reaction plate incubating the Raji cells was centrifuged to discard the supernatant. The above mixture was added as 100 μl per well to Raji cells and incubated on ice for 1-2 hours. The plate was washed twice with blocking solution (PBS, 2% fetal bovine serum) by centrifugation, added with 100 microliters of fluorescent (Alexa 488)-labeled secondary antibodies per well, and incubated on ice for 1.0 hours. The plate was washed 2-3 times by centrifugation with blocking solution (PBS, 2% fetal bovine serum), added with 100 microliters of PBS per well to suspend cells, and detected using FACS (FACS Calibur, BD) and the results were analyzed. Wherein, the IgG control was murine IgG, and the data in the table is the inhibition rate (%).

Assay [3] has as its target T3, hFc tagged monkey LAG-3 protein (cLAG-3-hFc protein) (monkey; human).
T3 construct: Made in HEK293 cells; also called monkey LAG-3 extracellular domain protein; not shown: human IgG Fc fragment (hFc) of the pCpC vector
T3 chain: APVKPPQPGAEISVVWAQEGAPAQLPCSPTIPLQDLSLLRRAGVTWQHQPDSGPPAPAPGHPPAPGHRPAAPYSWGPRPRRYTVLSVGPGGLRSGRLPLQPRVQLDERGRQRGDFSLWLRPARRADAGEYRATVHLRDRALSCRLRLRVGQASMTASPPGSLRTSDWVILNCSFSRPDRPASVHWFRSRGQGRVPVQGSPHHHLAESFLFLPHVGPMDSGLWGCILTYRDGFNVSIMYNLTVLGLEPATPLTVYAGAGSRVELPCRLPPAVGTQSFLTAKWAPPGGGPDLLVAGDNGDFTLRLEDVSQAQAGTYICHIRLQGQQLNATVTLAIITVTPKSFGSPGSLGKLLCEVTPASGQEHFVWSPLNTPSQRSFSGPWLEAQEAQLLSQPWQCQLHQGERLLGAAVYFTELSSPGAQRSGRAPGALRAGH
Kind of assay: ELISA, cLAG-3-hFc coated; 0.6667 nM. The method, then:
The plate was sealed with plastic film and incubated overnight at 4° C. The plate was washed 2 times with the plate washing solution (PBS+0.01% Tween20) on the next day, and added with the blocking solution (PBS+0.01% Tween20+1% BSA) and blocked at room temperature for 1-2 hours. The blocking solution was poured out, and the plate was added with 50-100 μl of the antibody sample to be tested to each well, incubated at 37° C. for 1-2 hours, and washed 2-3 times with a plate washing solution (PBS+0.01% Tween20). HRP (horseradish peroxidase) labeled secondary antibody was added, and the plate was incubated at 37° C. for 1-2 hours, and washed 2-3 times with a plate washing solution (PBS+0.01% Tween20). 100 μl of TMB substrate was added to each well. After incubated at room temperature for 15-30 minutes, the plate was added with 100 μl of stop solution (1.0N HCl) to each well.

Positions count from the first letter of the chain named.

B1: 556F6B8 mouse-human chimeric antibody (antibody, V domains shown)
VH: RVQLKQSGPGLVQPSQSLSITCTVSGFSLIKYGVHWVRQSPGEGLEWLGVIWRGGITDYNAAFMSRLSITKDNSKSQVFFKMNSLQADDTAIYYCAKWDGPLAMDYWGQGTSVTVSS
VL: DIVMTQSHKFLSTSVGDRVSITCKASQDVGTTVAWYQQKPGQSPKLLIYWASTRHTGVPDRFTGSGSGTDFTLTISNVQSEDLADYFCQQYSSYPYTFGGGTKLEIK
notes: also called mAb123-556F6B8; 556F8B8
In turn, B1 registered a Mean fluorescence intensity in assay [1] of 3.3. The “Inhibition rate (%)” value in assay [2] was 96%.

B2: 556F6B8 (LAG-3 mouse-human chimeric antibody) (antibody, V domains shown)
VH: B1 VH
VL: B1 VL
notes: also called 556F8B8
On to B2, for which, in assay [3], the OD450 turned out to be 3.7 OD450.

B3: 105F1E10 mouse-human chimeric antibody (antibody, V domains shown)
VH: EVQLQQSGPELVKPGASVKMSCRASGYTFTDFKMHWMKQSHGKSLEWIGYIAPNNGGTAYNQKFRGKATLTVNESSNTAYMELRSLTSEDSAVYYCVDWDDVDYWGQGTTLTVSS
VL: DIKMTQSPSSMYASLGERVTITCKASQDINSYLSWFQQKSGKSPKTLIYRANRLVDGVPSRFSGSGSGQDYSLTISSLEYEDMGIYYCLQYVEFPLTFGAGTKLELK
notes: also called mAb009-105F1E10
B3 registered a Mean fluorescence intensity in assay [1] of 2.6. Moreover, the “Inhibition rate (%)” value in assay [2] was 96%.

B4: 105F1E10 (LAG-3 mouse-human chimeric antibody) (antibody, V domains shown)
VH: B3 VH
VL: B3 VL
On to B4, for which, in assay [3], the OD450 was 3.38 OD450.

B5: 405B8H3 mouse-human chimeric antibody (antibody, V domains shown)
VH: QVQLQQSGAELVRPGASVTLSCKASGYTFTDYEMHWVKQTPVHGLEWIGATDPETGNSAYNQKFKGKAIMTADKSSSTAYMELRSLTSEDSAVYYCISTGWNDWGQGTSLTVSS
VL: B3 VL with S40P, N52D, V55L, E81G, V92D, L96Y, A100G, L106I
notes: also called mAb103-405B8H3
Consider B5, for which the Mean fluorescence intensity in assay [1] is 2.8. In assay [2], the “Inhibition rate (%)” value turned out to be 95.8%.

B6: 405B8H3 (LAG-3 mouse-human chimeric antibody) (antibody, V domains shown)
VH: B5 VH
VL: B3 VL with S40P, N52D, V55L, E81G, V92D, L96Y, A100G, L106I
notes: also called mouse-human chimeric antibody 405B8H3
In turn, B6 displayed an OD450 in assay [3] of 3.39 OD450.

B7: 409B11E12 (LAG-3 mouse-human chimeric antibody) (antibody, V domains shown)
VH: B5 VH with P41T, G56S, N57Y, M70L, S98A
VL: B3 VL with I2L, S40P, V55L, V92D, L96Y, A100G, L106I
On to B7, for which, in assay [3], the OD450 stood at 3.36 OD450.

B8: 409B11E12 mouse-human chimeric antibody (antibody, V domains shown)
VH: B5 VH with P41T, G56S, N57Y, M70L, S98A
VL: B3 VL with I2L, S40P, V55L, V92D, L96Y, A100G, L106I
notes: also called mAb104-409B11E12
Molecule B8 showed a Mean fluorescence intensity in assay [1] of 2.8. Further, the “Inhibition rate (%)” value in assay [2] is 95.3%.

B9: 409D4E10 mouse-human chimeric antibody (antibody, V domains shown)
VH: B5 VH with Y27N, G56D, S58T, M70L, A72T, S98T, T99S
VL: B3 VL with S40P, V55L, V92N, L96Y, A100G, L106I
notes: also called mAb112-409D4E10
Regarding B9, the Mean fluorescence intensity in assay [1] stood at 3. For the same molecule, the “Inhibition rate (%)” value in assay [2] was determined as 95.9%.

B10: 409D4E10 (LAG-3 mouse-human chimeric antibody) (antibody, V domains shown)
VH: B5 VH with Y27N, G56D, S58T, M70L, A72T, S98T, T99S
VL: B3 VL with S40P, V55L, V92N, L96Y, A100G, L106I
For B10, the OD450 in assay [3] was determined as 3.78 OD450.
